Source: patent US20180155451A1 (published 2018)

B1: GpH7-A5/GpH7-B3 variant P271_01G/GpL16-k0 (antibody, human IgG1, kappa)
heavy 1: not shown
heavy 2: not shown
light: DIVMTQSPLSLPVTPGEPASISCQASESLVHSNRNTYLHWYLQKPGQSPQLLIYKVSNRFSGVPDRFSGSGSGTDFTLKISRVEAEDVGVYYCSQNTHVPPTFGQGTKVEIERTVAAPSVFIFPPSDEQLKSGTASVVCLLNNFYPREAKVQWKVDNALQSGNSQESVTEQDSKDSTYSLSSTLTLSKADYEKHKVYACEVTHQGLSSPVTKSFNRGEC
notes: heterodimerized antibody, mutation in one H chain only; also called P271_01G He Ab
B2: GpH7-A5/GpH7-B3 variant K334_05P/GpL16-k0 (antibody, human IgG1, kappa)
heavy 1: not shown
heavy 2: not shown
light: DIVMTQSPLSLPVTPGEPASISCQASESLVHSNRNTYLHWYLQKPGQSPQLLIYKVSNRFSGVPDRFSGSGSGTDFTLKISRVEAEDVGVYYCSQNTHVPPTFGQGTKVEIERTVAAPSVFIFPPSDEQLKSGTASVVCLLNNFYPREAKVQWKVDNALQSGNSQESVTEQDSKDSTYSLSSTLTLSKADYEKHKVYACEVTHQGLSSPVTKSFNRGEC
notes: heterodimerized antibody, mutation in one H chain only; also called K334_05P He Ab
B3: GpH7-A5/GpH7-B3 variant K326_09D/GpL16-k0 (antibody, human IgG1, kappa)
heavy 1: not shown
heavy 2: not shown
light: DIVMTQSPLSLPVTPGEPASISCQASESLVHSNRNTYLHWYLQKPGQSPQLLIYKVSNRFSGVPDRFSGSGSGTDFTLKISRVEAEDVGVYYCSQNTHVPPTFGQGTKVEIERTVAAPSVFIFPPSDEQLKSGTASVVCLLNNFYPREAKVQWKVDNALQSGNSQESVTEQDSKDSTYSLSSTLTLSKADYEKHKVYACEVTHQGLSSPVTKSFNRGEC
notes: heterodimerized antibody, mutation in one H chain only; also called K326_09D He Ab
B4: GpH7-A5/GpH7-B3 variant K334_03V/GpL16-k0 (antibody, human IgG1, kappa)
heavy 1: not shown
heavy 2: not shown
light: DIVMTQSPLSLPVTPGEPASISCQASESLVHSNRNTYLHWYLQKPGQSPQLLIYKVSNRFSGVPDRFSGSGSGTDFTLKISRVEAEDVGVYYCSQNTHVPPTFGQGTKVEIERTVAAPSVFIFPPSDEQLKSGTASVVCLLNNFYPREAKVQWKVDNALQSGNSQESVTEQDSKDSTYSLSSTLTLSKADYEKHKVYACEVTHQGLSSPVTKSFNRGEC
notes: heterodimerized antibody, mutation in one H chain only; also called K334_03V He Ab
B5: GpH7-A5/GpH7-B3 variant K334_14T/GpL16-k0 (antibody, human IgG1, kappa)
heavy 1: not shown
heavy 2: not shown
light: DIVMTQSPLSLPVTPGEPASISCQASESLVHSNRNTYLHWYLQKPGQSPQLLIYKVSNRFSGVPDRFSGSGSGTDFTLKISRVEAEDVGVYYCSQNTHVPPTFGQGTKVEIERTVAAPSVFIFPPSDEQLKSGTASVVCLLNNFYPREAKVQWKVDNALQSGNSQESVTEQDSKDSTYSLSSTLTLSKADYEKHKVYACEVTHQGLSSPVTKSFNRGEC
notes: heterodimerized antibody, mutation in one H chain only; also called K334_14T He Ab
B6: GpH7-A5/GpH7-B3 variant K326_10E/GpL16-k0 (antibody, human IgG1, kappa)
heavy 1: not shown
heavy 2: not shown
light: DIVMTQSPLSLPVTPGEPASISCQASESLVHSNRNTYLHWYLQKPGQSPQLLIYKVSNRFSGVPDRFSGSGSGTDFTLKISRVEAEDVGVYYCSQNTHVPPTFGQGTKVEIERTVAAPSVFIFPPSDEQLKSGTASVVCLLNNFYPREAKVQWKVDNALQSGNSQESVTEQDSKDSTYSLSSTLTLSKADYEKHKVYACEVTHQGLSSPVTKSFNRGEC
notes: heterodimerized antibody, mutation in one H chain only; also called K326_10E He Ab
B7: GpH7-A5/GpH7-B3 variant K334_09D/GpL16-k0 (antibody, human IgG1, kappa)
heavy 1: not shown
heavy 2: not shown
light: DIVMTQSPLSLPVTPGEPASISCQASESLVHSNRNTYLHWYLQKPGQSPQLLIYKVSNRFSGVPDRFSGSGSGTDFTLKISRVEAEDVGVYYCSQNTHVPPTFGQGTKVEIERTVAAPSVFIFPPSDEQLKSGTASVVCLLNNFYPREAKVQWKVDNALQSGNSQESVTEQDSKDSTYSLSSTLTLSKADYEKHKVYACEVTHQGLSSPVTKSFNRGEC
notes: heterodimerized antibody, mutation in one H chain only; also called K334_09D He Ab
B8: GpH7-A5/GpH7-B3 variant K334_08L/GpL16-k0 (antibody, human IgG1, kappa)
heavy 1: not shown
heavy 2: not shown
light: DIVMTQSPLSLPVTPGEPASISCQASESLVHSNRNTYLHWYLQKPGQSPQLLIYKVSNRFSGVPDRFSGSGSGTDFTLKISRVEAEDVGVYYCSQNTHVPPTFGQGTKVEIERTVAAPSVFIFPPSDEQLKSGTASVVCLLNNFYPREAKVQWKVDNALQSGNSQESVTEQDSKDSTYSLSSTLTLSKADYEKHKVYACEVTHQGLSSPVTKSFNRGEC
notes: heterodimerized antibody, mutation in one H chain only; also called K334_08L He Ab
B9: GpH7-A5/GpH7-B3 variant K334_13S/GpL16-k0 (antibody, human IgG1, kappa)
heavy 1: not shown
heavy 2: not shown
light: DIVMTQSPLSLPVTPGEPASISCQASESLVHSNRNTYLHWYLQKPGQSPQLLIYKVSNRFSGVPDRFSGSGSGTDFTLKISRVEAEDVGVYYCSQNTHVPPTFGQGTKVEIERTVAAPSVFIFPPSDEQLKSGTASVVCLLNNFYPREAKVQWKVDNALQSGNSQESVTEQDSKDSTYSLSSTLTLSKADYEKHKVYACEVTHQGLSSPVTKSFNRGEC
notes: heterodimerized antibody, mutation in one H chain only; also called K334_13S He Ab
B10: GpH7-A5/GpH7-B3 variant K334_04F/GpL16-k0 (antibody, human IgG1, kappa)
heavy 1: not shown
heavy 2: not shown
light: DIVMTQSPLSLPVTPGEPASISCQASESLVHSNRNTYLHWYLQKPGQSPQLLIYKVSNRFSGVPDRFSGSGSGTDFTLKISRVEAEDVGVYYCSQNTHVPPTFGQGTKVEIERTVAAPSVFIFPPSDEQLKSGTASVVCLLNNFYPREAKVQWKVDNALQSGNSQESVTEQDSKDSTYSLSSTLTLSKADYEKHKVYACEVTHQGLSSPVTKSFNRGEC
notes: heterodimerized antibody, mutation in one H chain only; also called K334_04F He Ab
B11: GpH7-A5/GpH7-B3 variant K334_15Y/GpL16-k0 (antibody, human IgG1, kappa)
heavy 1: not shown
heavy 2: not shown
light: DIVMTQSPLSLPVTPGEPASISCQASESLVHSNRNTYLHWYLQKPGQSPQLLIYKVSNRFSGVPDRFSGSGSGTDFTLKISRVEAEDVGVYYCSQNTHVPPTFGQGTKVEIERTVAAPSVFIFPPSDEQLKSGTASVVCLLNNFYPREAKVQWKVDNALQSGNSQESVTEQDSKDSTYSLSSTLTLSKADYEKHKVYACEVTHQGLSSPVTKSFNRGEC
notes: heterodimerized antibody, mutation in one H chain only; also called K334_15Y He Ab

target: T1, FcγRIa extracellular domain with C-terminal His tag (human, UniProt P12314 16-292); test: SPR (Biacore), relative FcγRIa binding, GpH7-A5/GpH7-B3/GpL16-k0 (HeCon Ab) = 100
T1 construct: extracellular domain; soluble analyte in Biacore; also called FcgRI; CD64
T1 sequence (P12314 16-292): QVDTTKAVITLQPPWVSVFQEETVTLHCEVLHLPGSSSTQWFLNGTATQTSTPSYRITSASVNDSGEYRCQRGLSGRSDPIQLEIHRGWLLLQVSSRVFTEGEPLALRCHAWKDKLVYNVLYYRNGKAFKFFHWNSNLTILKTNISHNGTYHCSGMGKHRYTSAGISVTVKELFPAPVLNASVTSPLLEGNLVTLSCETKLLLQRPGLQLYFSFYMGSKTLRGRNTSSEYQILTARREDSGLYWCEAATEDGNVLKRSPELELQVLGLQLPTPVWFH

Point of comparison: B5, He/Con_1a 105 % of control. Against it:
- B1 — the same, 105 % of control
- B2 — lower, 104 % of control
- B3 — lower, 103 % of control
- B4 — the same, 105 % of control
- B6 — lower, 104 % of control
- B7 — higher, 106 % of control
- B8 — the same, 105 % of control
- B9 — the same, 105 % of control
- B10 — the same, 105 % of control
- B11 — the same, 105 % of control
